Patent US20180155432A1 (INSTITUT NATIONAL DE LA RECHERCHE SCIENTIFIQUE, published 2018)

Target: T1, recombinant human galectin-1 (human, UniProt P09382 2-135)
T1 construct: Used as the galectin selectivity control; also called hGal-1; Gal-1
Test: solid phase fluorescent binding assay; galectin coated at 10 µg/ml, streptavidin R-phycoerythrin detection
Method: Recombinant hGal-7 or hGal-1 (10 μg/mL) was coated overnight at 4° C. on black, flat bottom, 96-well polystyrene microplates (Ultident®, Montreal, QC, Canada). Thereafter, the plate was blocked with Reagent diluent (PBS-BSA 1%) for 1h, then incubated with unlabeled hGal-7₍₁₂₉₋₁₃₅₎ (cold) for 60 min and finally incubated with biotin-labeled [Ah⁰]hGal-7₍₁₂₉₋₁₃₅₎ for 2h. Lastly, Streptavidin R-phycoerythrin (1/500, Jackson Immunoresearch®, West Grove, Pa., USA) was applied to samples for 30 min. All incubations were performed at room temperature and the washes between incubations were done with 20 mM potassium phosphate buffer pH 7.1. The plate was read by a Tecan® Infinite M1000 PRO microplate reader at excitation and emission wavelengths of 488 nm and 670 nm, respectively.

T1 sequence (P09382 2-135 limits assumed): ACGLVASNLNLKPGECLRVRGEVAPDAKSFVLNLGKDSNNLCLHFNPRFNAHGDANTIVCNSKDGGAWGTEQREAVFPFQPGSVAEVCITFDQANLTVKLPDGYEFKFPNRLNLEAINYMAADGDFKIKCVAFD

binding result: no binding
B1: biotin-labeled [Ahx0]hGal-7(129-135) (peptide)
peptide: LDSVRIF
HELM: PEPTIDE1{[O=C1N[C@H]2[C@H](CS[C@H]2CCCCC(=O)[*:2])N1].[O=C(CCCCCN[*:1])[*:2]].L.D.S.V.R.I.F.[am]}$$$$V2.0
SMILES: CC[C@H](C)[C@H](NC(=O)[C@H](CCCNC(=N)N)NC(=O)[C@@H](NC(=O)[C@H](CO)NC(=O)[C@H](CC(=O)O)NC(=O)[C@H](CC(C)C)NC(=O)CCCCCNC(=O)CCCC[C@@H]1SC[C@@H]2NC(=O)N[C@@H]21)C(C)C)C(=O)N[C@@H](Cc1ccccc1)C(N)=O
